Laboratory results published in patent publication US20250122303A1 (HUMMINGBIRD BIOSCIENCE PTE, published 2025).

Columns and labels:
[1] = biological target: T1, His-tagged human HER3 (human, UniProt P21860 20-643); experiment: plate ELISA dimerisation assay; HER2-Fc coated, constant HER3 His and NRG, antibody varied; blocked partner HER2-Fc
T1 construct: Antigen of the BLI experiments and of the HER2-Fc dimerisation ELISA; also called HER3 His; not shown: His tag
Protocol: Plate-based ELISA dimerisation assays were carried out according to standard protocols. Plates were coated with 1 μg/ml HER2-Fc protein. […] Plates were then washed and incubated for 1 hour with secondary anti-HIS HRP antibody. […] The absorbance was read at 450 nm.

[2] = biological target: T2, His-tagged FcγRIIIa (V158) (human, UniProt P08637 17-208); experiment: Bio-Layer Interferometry; His-tagged FcγRIIIa (V158) on anti-Penta-HIS tips, antibody in solution
T2 construct: not shown: His tag
Protocol: (§1) All measurements were performed at 25° C. with agitation at 1000 rpm. […] Sensograms were referenced for buffer effects and then fitted using the Octet QK384 user software (Pall ForteBio, USA). Kinetic responses were subjected to a global fitting using a one site binding model to obtain values for association (Kₒₙ), dissociation (Koff) rate constants and the equilibrium dissociation constant (KD). Only curves that could be reliably fitted with the software (R²>0.90) were included in the analysis.
BLI was performed as described above.

[3] = biological target: T3, human HER3 expressed on cells (HEK293 HER3 O/E cells) (human, UniProt P21860 20-1342); experiment: flow cytometry, HEK293 and HEK293 cells overexpressing human HER3, 20 ug/ml antibody, FITC anti-Fc secondary
T3 construct: Also used here for HER3 on U2OS cells of the PathHunter kit and on cancer cell lines; also called HEK293 cells transfected with vector encoding human HER3; human HER3-expressing cells
Protocol: The cells were washed thrice with FACS buffer (PBS with 5 mM EDTA and 0.5% BSA) and resuspended in FITC-conjugated anti-FC antibody (Invitrogen, USA) for 40 min at 2-8° C. Cells were washed again and resuspended in 200 μL of FACS flow buffer (PBS with 5 mM EDTA) for flow cytometric analysis using MACSQuant 10 (Miltenyi Biotec, Germany). After acquisition, all raw data were analyzed using Flowlogic software. Cells were gated using forward and side scatter profile percentage of positive cells was determined for native and overexpressing cell populations.

[4] = biological target: T4, FcRn (human, UniProt P55899); experiment: Bio-Layer Interferometry (determined as described in Example 7)
T4 construct: recombinant; also called human FcRn; gene FCGRT (so in the source)

[5] = biological target: T5, moFcRn (mouse, UniProt Q61559); experiment: as above
T5 construct: recombinant; also called mouse FcRn; gene FCGRT (so in the source)
T5 sequence (receptor, looked up): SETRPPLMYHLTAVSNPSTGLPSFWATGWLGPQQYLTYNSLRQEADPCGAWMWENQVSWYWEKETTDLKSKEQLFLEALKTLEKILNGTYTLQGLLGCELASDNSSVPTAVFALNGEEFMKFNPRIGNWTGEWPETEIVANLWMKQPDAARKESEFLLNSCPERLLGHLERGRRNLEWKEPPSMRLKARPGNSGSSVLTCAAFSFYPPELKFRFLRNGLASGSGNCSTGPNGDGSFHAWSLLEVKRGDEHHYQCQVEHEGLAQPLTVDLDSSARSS
T5 sequence (looked up): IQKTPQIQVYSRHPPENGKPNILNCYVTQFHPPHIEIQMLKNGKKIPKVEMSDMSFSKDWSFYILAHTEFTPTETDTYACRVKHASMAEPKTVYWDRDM

[6] = biological target: T1, His-tagged human HER3; experiment: Bio-Layer Interferometry (Octet QK384); antibody on anti-Human IgG Capture tips, HIS-tagged human HER3 at 30.3, 60.5, 121 and 242 nM
[7] = biological target: T6, FcgRIIB (human, UniProt P31994); experiment: Bio-Layer Interferometry (determined as described in Example 7)
T6 construct: recombinant; also called CD32B; hFcγRIIb
T6 sequence (receptor, looked up): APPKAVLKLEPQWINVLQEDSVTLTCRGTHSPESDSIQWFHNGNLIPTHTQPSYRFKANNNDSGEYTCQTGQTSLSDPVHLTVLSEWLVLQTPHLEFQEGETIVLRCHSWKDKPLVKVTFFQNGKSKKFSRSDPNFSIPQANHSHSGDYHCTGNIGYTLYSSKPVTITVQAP

[8] = biological target: T7, FcgRIIIA (F158) (human, UniProt P08637); experiment: as above
T7 construct: recombinant; also called CD16A; hFcγRIIIa158F

[9] = biological target: T8, FcgRIIA (R167) (human, UniProt P12318); experiment: as above
T8 construct: recombinant; also called CD32A; hFcγRIIa167R
T8 sequence (receptor, looked up): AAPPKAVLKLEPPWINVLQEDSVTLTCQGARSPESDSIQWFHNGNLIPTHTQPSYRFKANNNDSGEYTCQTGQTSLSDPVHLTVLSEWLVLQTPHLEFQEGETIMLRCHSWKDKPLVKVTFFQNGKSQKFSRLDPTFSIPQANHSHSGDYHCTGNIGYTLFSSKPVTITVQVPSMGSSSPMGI

[10] = biological target: T2, His-tagged FcγRIIIa (V158); experiment: as above
[11] = biological target: T9, FcgRIIA (H167) (human, UniProt P12318); experiment: as above
T9 construct: recombinant; also called CD32A; hFcγRIIa167H
T9 sequence (receptor, looked up): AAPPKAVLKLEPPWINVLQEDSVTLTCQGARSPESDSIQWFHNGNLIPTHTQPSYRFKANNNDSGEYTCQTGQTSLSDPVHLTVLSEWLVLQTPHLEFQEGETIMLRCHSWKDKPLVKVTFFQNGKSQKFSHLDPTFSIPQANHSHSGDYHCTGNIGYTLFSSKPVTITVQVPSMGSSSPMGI

[12] = biological target: T10, moFcgRIV; experiment: as above
T10 construct: also called CD16-2; mFcγRIV
T10 chain: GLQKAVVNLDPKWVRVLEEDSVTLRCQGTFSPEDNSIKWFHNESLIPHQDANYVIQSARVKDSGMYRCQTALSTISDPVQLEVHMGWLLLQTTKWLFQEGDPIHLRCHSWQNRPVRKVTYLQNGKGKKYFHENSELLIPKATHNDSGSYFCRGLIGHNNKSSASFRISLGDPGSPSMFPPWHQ

[13] = biological target: T1, His-tagged human HER3; experiment: BLI (Octet QK384), antibody on anti-human IgG capture tips, His-tagged human HER3 in solution, global one-site fit
Protocol: as §1, with “The anti-HER3 antibody clones in IgG1 format were analysed for binding affinity to human HER3. Bio-Layer Interferometry (BLI) experiments were performed using the Octet QK384 system (ForteBio). anti-Human IgG Capture (AHC) Octet sensor tips (Pall ForteBio, USA) were used to anti-HER3 antibodies (25 nM). All” for “All”

B1: M-05-74 (antibody, V domains shown)
VH: QVQLQQSGAELAKPGASVKMSCKTSGYTLTDYWIHWVKQRPGQGLEWIGYINPYTGYTESNQKFKDKATLTADKSSNTAYIQLSSLTSEDSAVYYCARPYYYGDYWGQGTTLTVSS
VL: QIVLTQSPAIMSASPGERVTITCSASSSVSYMHWFQQKPGTSPKLLIYSTSNLASGVPARFSGSGSGTSYSLTISRMEAEDAATYYCQQRSSYPFTFGSGTKLEIK
IC50 [1]: 80.2 nM

B2: 10D1 GASD variant (antibody, human IgG1, kappa)
heavy: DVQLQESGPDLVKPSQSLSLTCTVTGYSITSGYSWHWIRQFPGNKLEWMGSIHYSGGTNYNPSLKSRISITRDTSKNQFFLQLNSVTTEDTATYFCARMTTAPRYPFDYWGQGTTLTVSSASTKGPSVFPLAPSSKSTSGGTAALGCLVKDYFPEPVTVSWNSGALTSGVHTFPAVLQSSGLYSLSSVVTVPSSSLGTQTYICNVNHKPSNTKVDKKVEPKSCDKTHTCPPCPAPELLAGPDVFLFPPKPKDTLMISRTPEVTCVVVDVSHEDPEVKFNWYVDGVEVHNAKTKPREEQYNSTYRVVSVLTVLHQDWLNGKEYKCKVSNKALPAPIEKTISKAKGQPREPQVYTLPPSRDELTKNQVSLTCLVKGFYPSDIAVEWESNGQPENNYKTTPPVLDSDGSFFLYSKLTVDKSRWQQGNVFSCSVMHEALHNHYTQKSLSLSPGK
light: DIVMTQSQKFMSTSVGDRVSVTCKASQIVGSNVAWYQQKPGQSPKPLIYSASYRYSGVPDRFTASGSGTDFTLTITNVQSEDLAEYFCQQYSSHPLTFGAGTKLELKRTVAAPSVFIFPPSDEQLKSGTASVVCLLNNFYPREAKVQWKVDNALQSGNSQESVTEQDSKDSTYSLSSTLTLSKADYEKHKVYACEVTHQGLSSPVTKSFNRGEC
notes: also called Fc-modified anti-HER3 antibody clone 10D1 comprising GASD substitutions in CH2 region
Kd [2]: 58 nM | koff [2]: 0.009 s⁻¹ | kon [2]: 160000 M⁻¹ s⁻¹

B3: anti-HER3 clone 10A6 IgG1 (antibody, V domains shown)
VH: DVQLQESGPGLVKPSQSLSLTCSVTGNFITSGYFWNWIRQFPGNKLEWMGFISYDGSNNYKPSLKNRISITRDTSKNQFFLKLNSVTTEDTATYYCARENYGFGFDYWGQGTTLTVSS
VL: DIVLTQSPSSLPVSIGEKVTMSCKSSQSLLYSDNQKNYLAWYQQKPGQSPKLLIYWASTWKSGVPDRFTGSGSGTDFTLTISSVKAEDLAVYYCQQYFTFPWTFGGGTKLEIKR
notes: Human-mouse chimeric IgG1/kappa
binding result [3]: binds

B4: 10D1F hIgG1 N297Q (antibody)
heavy chain: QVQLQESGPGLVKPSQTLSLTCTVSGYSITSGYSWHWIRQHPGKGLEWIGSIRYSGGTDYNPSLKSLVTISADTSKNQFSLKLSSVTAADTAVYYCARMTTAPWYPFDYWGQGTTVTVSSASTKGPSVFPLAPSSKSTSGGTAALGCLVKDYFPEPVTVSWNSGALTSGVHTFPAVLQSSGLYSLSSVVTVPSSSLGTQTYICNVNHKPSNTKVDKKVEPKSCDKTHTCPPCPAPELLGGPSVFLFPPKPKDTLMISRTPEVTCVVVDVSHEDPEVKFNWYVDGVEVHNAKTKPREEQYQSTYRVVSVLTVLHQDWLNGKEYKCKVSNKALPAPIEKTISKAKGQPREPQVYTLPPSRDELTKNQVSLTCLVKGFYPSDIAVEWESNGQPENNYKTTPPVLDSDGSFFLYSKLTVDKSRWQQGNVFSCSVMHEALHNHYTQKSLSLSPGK
light chain: DIQMTQSPSSVSASVGDRVTITCKASQIVGSNVAWYQQKPGKAPEPLIYSASYLYSGVPSRFSGSGSGTDFTLTISSLQPEDFATYYCQQYSSHPLTFGQGTKLEIKRTVAAPSVFIFPPSDEQLKSGTASVVCLLNNFYPREAKVQWKVDNALQSGNSQESVTEQDSKDSTYSLSSTLTLSKADYEKHKVYACEVTHQGLSSPVTKSFNRGEC
Kd [4]: 54.6 nM | Kd [5]: 13.7 nM

B5: 10D1F.FcB (antibody, human IgG1, kappa)
heavy: QVQLQESGPGLVKPSQTLSLTCTVSGYSITSGYSWHWIRQHPGKGLEWIGSIRYSGGTDYNPSLKSLVTISADTSKNQFSLKLSSVTAADTAVYYCARMTTAPWYPFDYWGQGTTVTVSSASTKGPSVFPLAPSSKSTSGGTAALGCLVKDYFPEPVTVSWNSGALTSGVHTFPAVLQSSGLYSLSSVVTVPSSSLGTQTYICNVNHKPSNTKVDKKVEPKSCDKTHTCPPCPAPELLAGPDVFCFPPKPKDTLMISRTPEVTCVVVDVSHEDPEVKFNWYVDGVEVHNAKTKPREEQYNSTYRVVSVLTVLHQDWLNGKEYKCKVSNKALPLPEECTISKAKGQPREPQVYTLPPSRDELTKNQVSLTCLVKGFYPSDIAVEWESNGQPENNYKTTPPVLDSDGSFFLYSKLTVDKSRWQQGNVFSCSVMHEALHNHYTQKSLSLSPGK
light: DIQMTQSPSSVSASVGDRVTITCKASQIVGSNVAWYQQKPGKAPEPLIYSASYLYSGVPSRFSGSGSGTDFTLTISSLQPEDFATYYCQQYSSHPLTFGQGTKLEIKRTVAAPSVFIFPPSDEQLKSGTASVVCLLNNFYPREAKVQWKVDNALQSGNSQESVTEQDSKDSTYSLSSTLTLSKADYEKHKVYACEVTHQGLSSPVTKSFNRGEC
notes: also called 10D1F.B
Kd [6]: 0.0222 nM | koff [6]: 4.96e-06 s⁻¹ | kon [6]: 223000 M⁻¹ s⁻¹ | Kd [7]: 580 nM | Kd [8]: 162 nM | Kd [9]: 400 nM | Kd [10]: 82.1 nM | Kd [4]: 37.4 nM | Kd [11]: 561 nM | Kd [12]: 55.4 nM | Kd [5]: 15.2 nM

B6: anti-HER3 clone 4-35-B4 IgG1 (antibody, V domains shown)
VH: EVQLQQSGAELVKPGASVKLSCTASGFNIKDTYIHWVKQRPDQGLEWIGKIIDPANGNTNYDPKFQGKATITADTSSNTAYLQLSSLSSEDTAVYFCARGLHWGQGTTLTVSS
VL: DIVLTQSPASLAVSLGQRATISCRASKSVSTSGYSYMHWYQQKPGQPPKLLIYLASNLESGVPARFSGSGSGTDFTLNIHPVEEEDAATYYCQHSRELPYTFGGGTKLEIKR
notes: as for B3
Kd [13]: 50.3 nM
